From the supplement of paper PMC12042874
± gives the uncertainty stated by the source.

assay: amyloid nucleation score (Sup35N fusion, yeast selection) (log enrichment); library NNK2; higher = more nucleation; inactive = no reads after selection
Outline: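 The nucleation score is the DiMSum log enrichment of output over input reads, centred on the mode score of non-aggregating sequences. Only sequences with 100 or more input reads were scored, using Illumina sequencing of input and output plasmid inserts. Psi-negative yeast expressing Sup35N fused to peptides of 20 random codons were induced 24 hours with 100 μM copper sulfate and grown 7 days at 30°C on medium lacking adenine and uracil.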

Point of comparison: ICIVVVCDFCIYRMCATGTV, amyloid nucleation score 0.735 ± 0.28. Against it:
- RSFGSYCAGEGTRSPRDSRG — within error, 0.172 ± 0.65
- LIVKCSYLSWQAGIWAGFGY — higher, 2.9 ± 0.089
- TTSRLRWKRSHHKW — higher, 1.4 ± 0.29
- TAGWIFEWTFGPVYVFNSPW — higher, 8.016 ± 0.061
- VKNFTPFRHILVITYNITFN — higher, 1.9 ± 0.14
- FGWLALTKR — lower, -1.16 ± 0.34
- SFAHEDWHTLFLL — lower, -1.32 ± 0.75
- RGCIGK — within error, -0.161 ± 0.65
- HSFNYKFLLTI — within error, -0.001 ± 0.54
- WNKWSGLVLYTLGKLSY — lower, -0.648 ± 0.39
- ANGSKGLVLTLNGDSKCVEC — lower, 0.188 ± 0.25
- NELNLDKPSDLPLS — within error, 0.844 ± 0.31
- HQRSDYV — within error, 0.383 ± 0.74
- KIRSLCPRRKVILSASGQQL — within error, 0.971 ± 0.17
- LFLTDTLMMYINSECR — higher, 1.75 ± 0.087
- LRDIYNFGDSHYFRNYSVTE — lower, -0.132 ± 0.31
- FTIHWRVGCTQWLEAVIGYM — higher, 4.07 ± 0.1
- MLDVVARNH — higher, 1.52 ± 0.3
- DSCCIFIL — higher, 5.67 ± 0.058
- GPSDLIFLPGLMAPRS — within error, -0.373 ± 1.1
- WKGSEELRSGMAYVDGTGGE — within error, 1.32 ± 0.39
- TLFVKTYMSVFYIIACSSC — lower, -0.218 ± 0.64
- IFYGRYGAILWGAKCLY — higher, 1.96 ± 0.21
- YGLPYEVLFNHSHTSNRAYS — lower, -0.532 ± 0.43
- TSGRLR — higher, 1.67 ± 0.38
- LVKMTLGCATSMLRCLMLSV — within error, 0.457 ± 0.24
- ISRILRKYNVIVRSSSVSRG — lower, -1.06 ± 0.31
- NESSTSQNKGTRTDKGAESL — within error, 0.376 ± 0.33
- LSIGSQAI — within error, 0.501 ± 0.38
- SHLKMDNPCLGF — lower, -0.121 ± 0.25
- GRRYSRTVEFVTF — within error, 0.692 ± 0.29
- WPVCTSIYMVGWWSVHTYHG — within error, 0.705 ± 0.8
- RDVFTFYNKGEFERCQTLVY — within error, 0.092 ± 1.1
- GISSSHPRTNGHRQYLNFGV — lower, -0.627 ± 0.61
- VKSTYAYPPNVVDPHIGWGH — within error, 0.99 ± 0.24
- LMGIEVDGYYGCRCLTP — within error, 0.236 ± 1.1
- VDTRS — within error, 0.382 ± 0.8
- IITIIKF — higher, 7.164 ± 0.03
- WYSYRL — lower, -0.11 ± 0.46
- LLNVIVVRIK — higher, 5.313 ± 0.03
- YVFLEGFNRVFDHVACIGLK — lower, -0.721 ± 0.35
- NLLLVFSILNSGRMTLNDNK — higher, 5.48 ± 0.094
- DDIAVCWNCFVRLILMMWED — higher, 1.57 ± 0.42
- ADGFVSSIVLT — lower, 0.006 ± 0.24
- SDLSKKSLLKVLMAS — within error, -0.375 ± 1.1
- WLPNRRNVPYAVESVCS — within error, 0.971 ± 0.33
- FLICGHCWGPNTYYNTSVLM — higher, 7.8 ± 0.061
- LDAERM — within error, 0.306 ± 0.23
- GLHLHSVAEYVCWGTPLSRL — within error, 0.119 ± 0.76
- LTACEQSWLKILLLMEMQTL — lower, -0.137 ± 0.54
- WSYGSNLPWLDKPNWHHETW — within error, 1.2 ± 0.47
- VVAGEYGWTWFFKESLGLGM — lower, -0.332 ± 0.49
- MYYLNSFGRELLSGLKCYKT — lower, -0.698 ± 0.5
- FSCSLQRIGEMSRDKSYTPA — within error, 0.503 ± 0.66
- VYLGSGFAARRSSGEQRRIS — within error, 0.536 ± 0.66
- STGMRGKYVTFFCSSVIFRQ — higher, 7.2 ± 0.06
- VGTILAPGGLWGMEVCWQTK — higher, 3.06 ± 0.12
- DSGVAHCANPCRPYREPVQS — within error, 1.09 ± 0.37
- QSESVVRHWGMRWR — within error, 0.729 ± 0.29
- LCGSRKRCGEMLRRKLGKYV — within error, 0.602 ± 0.81
- ISHYAYQ — within error, 0.811 ± 0.57
- GVYICQFIAVISLSAQSLWY — lower, -0.97 ± 1.1
- FLRNPPYESTTQGGRPKGAH — within error, 0.134 ± 0.51
- RATSVSILVQLGETLFCEYT — within error, 0.56 ± 0.2
- PRRCSISIEFRDE — lower, -0.718 ± 0.76
- YRILSNASWTFAVVQSCNPY — higher, 5.789 ± 0.047
- GIFYSRL — within error, -0.089 ± 0.61
- LCFKLMNSKSWMRIQTAWTL — within error, 0.384 ± 0.34
- IFDAFWYTVTVRDNDG — higher, 1.76 ± 0.17
- TTIFGNSATLDGIPHIIKRP — within error, -0.268 ± 0.79
- NLYMFIRRAPDIIFCAHVYQ — higher, 4.35 ± 0.051
- HQYGLNIKCFKCAILSKSGT — lower, -0.562 ± 1
- VDSTFSHSSSFWELYRPTHL — lower, -1.41 ± 1.1
- ISCKSFENTTHPALIPRVKA — lower, -0.331 ± 0.5
- KAGTGVVSANK — within error, 0.644 ± 0.39
- DNGNTMDES — within error, 0.232 ± 0.55
- SRACVLWKGLRRAANTC — within error, 0.984 ± 0.27
- TWNLMNKVYIVPGLDPDTRS — higher, 7.225 ± 0.055
- GGGGCSSDFTQKTPPGQAKA — lower, -0.102 ± 0.36
- MSIRIGEWPVHSGAYEESLK — within error, 0.223 ± 0.45
- CIGYKLLLGELLAP — within error, 0.137 ± 0.5
- NFKWLILAGGVC — lower, -0.808 ± 0.41
- VASYAIGSFYADVACVEPRY — within error, 0.835 ± 0.43
- PGRDTVTLLHLCHFGVGSGF — within error, 0.165 ± 1
- CSAVAALLPILGMELIGTSI — lower, -0.41 ± 0.55
- RVFNLNKKMNFSTISG — lower, -0.942 ± 1.1
- ISRYEGRRLKCDGITFGYSG — lower, -0.031 ± 0.23
- RMSIWRFRMSLAQDGLGRFQ — higher, 5.564 ± 0.044
- VRCSVCVGACEHGPVN — within error, 1.27 ± 0.61
- ILRLTAVCHGHFAVRPDWKR — within error, 0.248 ± 0.35
- SISGHSWTKCVRVHYALIYG — within error, 1.07 ± 0.38
- MVAGITFTNASIWTYNK — higher, 3.63 ± 0.075
- CSWGCNDFRSCLALVMDCHA — within error, 1.02 ± 0.61
- FMELLYHSASYSARFTRKSR — higher, 2.69 ± 0.098
- HQIHLSY — within error, -0.593 ± 1.1
- IGWFKRRSCVEFGRRRMRIL — lower, -1.3 ± 1.1
- SVIKQNC — within error, 0.547 ± 0.47
- GNRVWERTNFELSSDRESGV — within error, 0.832 ± 0.27
- NNVSLPYMSSIVIIGLIRR — higher, 7.193 ± 0.057
- WSEHQGQPNRERWWSAAGEG — within error, 0.984 ± 0.32
- TSYTLDYCGISMLKYFNSVD — higher, 7.188 ± 0.062
- EKVDCSVLAGNNWTWVNISL — higher, 6.7 ± 0.079
- GANMLETV — lower, -0.085 ± 0.47
- RSFLWVFRKYRGW — within error, 0.783 ± 0.66
- YRLNVNKSSNQGV — lower, -0.712 ± 0.45
- TTGRKFMMIVTGGCGESGRF — lower, -0.77 ± 0.42
- NYTWSNTRLNYPLRVNATNH — lower, -1.01 ± 1.1
- EGFKYWIDKGSSGTVCVKST — within error, 0.249 ± 0.65
- GDTAWFKVDQLPRLPNTRLQ — within error, 0.998 ± 0.74
- SIPSCCWSLMGFNIIELDDG — within error, 0.173 ± 1.1
- RNAQPLNGPRSPVSGTDWYS — within error, 0.092 ± 1.1
- FMIFDVGNSGKYLLSVS — lower, -0.774 ± 0.27
- STRKCFLMLILTRFGMCC — within error, 0.603 ± 0.38
- IVGSDGGNIFTRLGCSAYRE — lower, -1.14 ± 0.35
- YGCLNYSRWRTSAGMDTNNG — lower, -0.794 ± 0.63
- FCSCWNSEFNENSFVWRNIL — higher, 5.35 ± 0.058
- NVGYWYCLD — higher, 8.808 ± 0.033
- SISWVVYSTV — higher, 2.1 ± 0.084
- SHGCGHRL — within error, -0.051 ± 0.79
- SWGLPKVVIGGLQMRLEVGA — within error, 0.754 ± 0.39
- WRGLGVLYVSCVDSRVSSI — lower, -1.73 ± 0.75
- NLIKNSAMLSSTRPIYHHSI — lower, -1.27 ± 0.3
- SWHFKSKHSCVFFRCEYVVS — within error, -0.373 ± 1
- PNWPR — within error, 0.512 ± 0.66
- LELKDNMAFDRSLFLKRHGG — lower, -0.243 ± 0.28
- SSGVRPNNLVSFEFHCLELG — lower, -0.28 ± 0.54
- CRYEIKLCYDLMQNPLFTRS — lower, -0.522 ± 0.41
- LHQRLV — within error, 0.195 ± 0.27
- HGAVRSLSGGHIDRELVCD — within error, 0.566 ± 0.74
- GYDLYLTEWRSVFTAVIANE — within error, -0.055 ± 1.1
- LGCYTYLQEVRMGEDTARGG — within error, 0.386 ± 0.39
- YQLLLFV — lower, -0.969 ± 0.41
- QDFCSEGCLEDVSSLY — lower, -1.37 ± 0.49
- CIMCGALEIGFGIIRGWEDF — higher, 9.421 ± 0.067
- HFFSSSSMRMYTSYSPLVMW — within error, 0.215 ± 0.42
- KSGMWAFYSEDKRTSGLLRW — within error, 0.626 ± 0.65
- TKMVCSKRMFVECVLNLF — within error, 0.221 ± 0.31
- YLSTGNNMFLNVQDSQGA — higher, 1.36 ± 0.13
- CRVLGQRRGASTNVSVHIVE — within error, -0.097 ± 1.1
- IRSMACDIPGV — lower, -0.255 ± 0.65
- TFFMVGNMNNTPSPRPARTK — higher, 4.57 ± 0.089
- LDVYQ — lower, -0.711 ± 0.64
- ALLALTVLIYNLIDMLQVNR — within error, 0.728 ± 0.8
- HTWGAHRFCRWRNTSASDSW — higher, 8.703 ± 0.03
- SYKGALLSEQIL — within error, 0.114 ± 0.4
- CIVCFVFMLKRALLLHFCIA — lower, -0.81 ± 1
- CASAFCLTRE — higher, 4.49 ± 0.057
- LCDGAMRMCGWMKLGVQLGV — higher, 2.82 ± 0.15
- GIHGIIITRV — higher, 3.22 ± 0.14
- LMLFDVKGRICGFDLCLIRR — within error, 0.381 ± 0.62
- HTTLHSSAIQVWSWRLLYFV — higher, 5.061 ± 0.049
- RSHMYSGYIYLIQKTFLREV — lower, -1.29 ± 0.26
- TICSHKRKYNWMIGWRMSTF — within error, 0.142 ± 0.45
- LCHEQLCGFRMFCYSHGR — higher, 3.58 ± 0.11
- IPTTQLAHCGQVACPARVVP — within error, 1.23 ± 0.28
- SWNMIQSTIFLPCNLGDYTV — higher, 5.678 ± 0.048
- MDHCTFYIRGMMPRMYGCTK — lower, -0.711 ± 0.44

With CNLSSCGHSFINLSYEDLCQ the amyloid nucleation score was “inactive”.
For LSGWDVHTSSTSVFRNNFIY, the amyloid nucleation score was “inactive”.
With AHTRSAMGDMPNVNGFLKCT the amyloid nucleation score was “inactive”.
For YCFSVYKGVGIGKKCGYLSS, the amyloid nucleation score was “inactive”.
With DVFWKPVYARYFFHRVCMRE the amyloid nucleation score was “inactive”.
In the case of PLGTSTTSFRSAVFQGMTWL, the amyloid nucleation score is reported as “inactive”.
With ISLDWAPN the amyloid nucleation score was “inactive”.
In the case of NVFKGPVLHGFRDRISWVKD, the amyloid nucleation score is reported as “inactive”.
In the case of WGLFPLQCHLVYRLLLSFHK, the amyloid nucleation score is reported as “inactive”.
For NFNHVSEI, the amyloid nucleation score was “inactive”.
For YGEELE, the amyloid nucleation score was “inactive”.
In the case of NREIGISWEGWMMLKILQYK, the amyloid nucleation score is reported as “inactive”.
For HSMSKDLGWFHPNVNRFGFF, the amyloid nucleation score was “inactive”.
